Target: the molecule itself
Assay: SEC; BioSep-SEC-S3000 column (5-700 kDa), room temperature, 0.5 ml/min, 100 mM potassium phosphate pH 7.4; 20 µl sample at ~2 mg/ml total protein; monitored at 410 nm; sizes estimated from the Bio-Rad gel filtration standard calibration curve

B1: CYP2C9 wild-type, N-terminally truncated, His-tagged recombinant protein (enzyme, human, UniProt P11712 29-490, looked up)
chain: LPPGPTPLPVIGNILQIGIKDISKSLTNLSKVYGPVFTLYFGLKPIVVLHGYEAVKEALIDLGEEFSGRGIFPLAERANRGFGIVFSNGKKWKEIRRFSLMTLRNFGMGKRSIEDRVQEEARCLVEELRKTKASPCDPTFILGCAPCNVICSIIFHKRFDYKDQQFLNLMEKLNENIKILSSPWIQICNNFSPIIDYFPGTHNKLLKNVAFMKSYILEKVKEHQESMDMNNPQDFIDCFLMKMEKEKHNQPSEFTIESLENTAVDLFGAGTETTSTTLRYALLLLLKHPEVTAKVQEEIERVIGRNRSPCMQDRSHMPYTDAVVHEVQRYIDLLPTSLPHAVTCDIKFRNYLIPKGTTILISLTSVLHDNKEFPNPEMFDPHHFLDEGGNFKKSKYFMPFSAGKRICVGEALAGMELFLFLTSILQNFNLKSLVDPKNLDTTPVVNGFASVPPFYQLCFIPV
modifications: biotin on the BCCP tag (50 µM biotin added to facilitate biotinylation)
notes: cytochrome P450 2C9, human; Vector pBJW102.2 (pQE-80L with BCCP and a glycine-serine linker 3' to the His-6 tag); also called CYP2C9 WT; source: E. coli DH5α, purified (Protino Ni-TED His-tag purification)
With B1 the “stoichiometry N” value was about 8 subunits.

Reference: PMC6082832, “Effects of polymorphic variation on the thermostability of heterogenous populations of CYP3A4 and CYP2C9 enzymes in solution” (Scientific Reports, 2018)
